± gives the standard deviation of the averaged measurements.
Test system: ATP
Assay: switch fluorescence ratio, 500 uM ATP over buffer (Cy3 cluster intensity, sum of 5 cycles each) (fold (ratio)); higher = stronger signal-on switching upon ATP binding; sequences stand for … in TCGTCGGCAGCGTCAGATGTGTATAAGAGACAGTTTTTTTTTTTTTTTTTTTTTTTTT…TC
Conditions: aptamer strand: ATP DNA aptamer (quencher-CACCTGGGGGAGTATTGCGGAGGAAGG + anchor), 100 nM annealed; ATP concentration: 500 uM
How it was run: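 Cy3-labelled switching-strand clusters on a modified Illumina MiSeq flow-cell were annealed to 100 nM quencher-labelled ATP aptamer, imaged in selection buffer, then imaged after 15 min with 500 uM ATP at 22 °C. Five buffer/ATP cycles ran, with NaOH stripping and re-annealing between them. The fluorescence ratio is summed target-cycle over summed buffer-cycle Cy3 intensity per cluster, averaged per switch-domain sequence. Clusters outside 100-1000 RFU were excluded.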
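Note: ATP exposure 15 min at 22 °C before imaging.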

Row | Sequence | switch fluorescence ratio
1 | GACGACGGGT | 1.27 ± 0.041
2 | TGCATGTTGG | 0.9937 ± 0.0017
3 | TCAGACAGTT | 0.987 ± 0.0042
4 | TGTGGGATAG | 0.979 ± 0.029
5 | CCTTTTGAAC | 1.04 ± 0.028
6 | GAGGCGGAGG | 1 ± 0.028
7 | AGAAGGCCGG | 0.98 ± 0.056
8 | GTAACAGGCG | 0.905 ± 0.021
9 | CGGTCCAGTA | 0.912 ± 0.048
10 | CGGATCGGGG | 1.17 ± 0.15
11 | GGGAGCGTTG | 1.01 ± 0.016
12 | CTCGCCAGGG | 1.41 ± 0.032
13 | AGGAGTGTTT | 1 ± 0.037
14 | AAGGCGAAAA | 0.976 ± 0.013
15 | CATTGAATAC | 1.36 ± 0.061
16 | TGAAACACCG | 1.46 ± 0.66
17 | ATTCTAGGA | 0.985 ± 0.02
18 | TACGGCGCGA | 1.39 ± 0.58
19 | CGGACGGGTG | 1.02 ± 0.018
20 | ACTAGGTATT | 1.03 ± 0.033
21 | CTGAAGGATT | 1.01 ± 0.011
22 | ACTTTTTGGC | 0.975 ± 0.022
23 | GCTCTTTTGG | 0.997 ± 0.019
24 | TAGTCCGTAA | 2.06 ± 0.035
25 | GCTAGAAATG | 0.978 ± 0.043

Row | Sequence | switch fluorescence ratio
26 | TATAGACTTT | 1.02 ± 0.019
27 | ATCTATCCTT | 1.01 ± 0.036
28 | CATATTGGGG | 0.963 ± 0.022
29 | TGGTTTTTAC | 1.01 ± 0.038
30 | ATTGTTATTG | 0.967 ± 0.065
31 | TGGGCAAGGA | 1.02 ± 0.028
32 | ATTTTAATGA | 0.934 ± 0.028
33 | CTTAGCTATT | 1.019 ± 0.0077
34 | GATAGGGGAC | 1.03 ± 0.039
35 | GCATAATTTT | 1.01 ± 0.028
36 | GGGTTAAAGG | 1 ± 0.015
37 | TGCATTTACT | 1.133 ± 0.0035
38 | GAGACGGGGG | 1.02 ± 0.033
39 | AAACTTTCTA | 1.05 ± 0.05
40 | CTTGTAGGTG | 1.36 ± 0.48
41 | GAGTAGACGT | 0.998 ± 0.049
42 | TTAGTGGGAG | 0.966 ± 0.033
43 | TTTGCCGCCC | 1.145 ± 0.0012
44 | GAAAGTGCTA | 1.07 ± 0.03
45 | CGTCTTAGGG | 0.966 ± 0.016
46 | ACTCGTTGTC | 1.02 ± 0.035
47 | ATATAATACG | 1.01 ± 0.024
48 | ACCTTTTAGG | 0.965 ± 0.036
49 | TCAATGGTTA | 0.978 ± 0.014
50 | GGGTCACAAA | 0.978 ± 0.01

Row | Sequence | switch fluorescence ratio
51 | CATTTGGCGG | 1 ± 0.013
52 | ATTATACAGC | 0.993 ± 0.025
53 | CGTTAAGTTC | 0.993 ± 0.029
54 | TTTGTTTGCT | 0.989 ± 0.025
55 | AGTCTCAAGT | 1.01 ± 0.045
56 | ATTCAAGCCT | 1.15 ± 0.047
57 | AACATATGGG | 1 ± 0.012
58 | GCCGGAAAGG | 0.9857 ± 0.0075
59 | GGGTGAGATC | 1.02 ± 0.012
60 | GGCCGAGGGG | 1.01 ± 0.03
61 | TCAGTAGTGA | 1.06 ± 0.051
62 | GCAGTAGTTG | 1.01 ± 0.026
63 | AGTTTTTGGC | 0.999 ± 0.021
64 | GGGCATCGGG | 0.991 ± 0.013
65 | GGTTGGGCGA | 0.986 ± 0.021
66 | TTCAAATCGA | 1 ± 0.039
67 | TATCATATTA | 1 ± 0.037
68 | ATTTTACCTC | 1.05 ± 0.13
69 | TATTGGGGGT | 1.01 ± 0.044
70 | TTCGAGTCGT | 1.006 ± 0.0034
71 | CACGGGGCGC | 0.977 ± 0.046
72 | TACTAGGGGA | 1.004 ± 0.0034
73 | GCCCATGAGT | 1.01 ± 0.011
74 | ATGAGGTGAT | 1.057 ± 0.0041
75 | CGGTTGCGTT | 0.987 ± 0.035

Row | Sequence | switch fluorescence ratio
76 | CGATCGGTCA | 1.0097 ± 0.00057
77 | GGGGCACATT | 0.9885 ± 0.0046
78 | CAATTTGCTG | 0.94 ± 0.026
79 | TAAGTGCAAG | 1.01 ± 0.033
80 | GGGGGAATGC | 1.07 ± 0.11
81 | GACATTAAGG | 1.01 ± 0.084
82 | ATCAAAATTT | 1.03 ± 0.028
83 | ATGGTTTCTT | 1 ± 0.034
84 | TAAATTTTTA | 0.986 ± 0.052
85 | AGGAGATACT | 1.09 ± 0.15
86 | ATAGAGGCTG | 1.04 ± 0.064
87 | AAGGGGCAGC | 0.9903 ± 0.0069
88 | TTATTCAGGA | 1.01 ± 0.029
89 | GGTCATGGGA | 0.99 ± 0.017
90 | AATAAAGGGT | 1.02 ± 0.027
91 | CCCGGCTGTT | 1.02 ± 0.067
92 | GTGTTGGTTT | 0.986 ± 0.024
93 | GCAAATTTTA | 1.02 ± 0.015
94 | CATGGTTTTC | 0.962 ± 0.04
95 | AGACGAAGT | 1 ± 0.019
96 | AACCAGTTAG | 1.01 ± 0.021
97 | AATTATCTGT | 0.9792 ± 0.0065
98 | TTATTGGAAA | 1.012 ± 0.0059
99 | TCGCGTTTGC | 1.06 ± 0.054
100 | AATTTGGGAA | 0.999 ± 0.017

From the supplement of paper PMC10126150
